Data as given in patent US20070196354A1, “Method of treating diabetes by inhibiting degradation of at least one of crebl1, atf6, and hnf-4 alpha by htra” (priority 2003, published 2007).

T1: ATF6 (Homo sapiens, UniProt P18850)
T1 construct: expressed in transfected cells; host or cells: HEK293T
T1 sequence (P18850 1-670): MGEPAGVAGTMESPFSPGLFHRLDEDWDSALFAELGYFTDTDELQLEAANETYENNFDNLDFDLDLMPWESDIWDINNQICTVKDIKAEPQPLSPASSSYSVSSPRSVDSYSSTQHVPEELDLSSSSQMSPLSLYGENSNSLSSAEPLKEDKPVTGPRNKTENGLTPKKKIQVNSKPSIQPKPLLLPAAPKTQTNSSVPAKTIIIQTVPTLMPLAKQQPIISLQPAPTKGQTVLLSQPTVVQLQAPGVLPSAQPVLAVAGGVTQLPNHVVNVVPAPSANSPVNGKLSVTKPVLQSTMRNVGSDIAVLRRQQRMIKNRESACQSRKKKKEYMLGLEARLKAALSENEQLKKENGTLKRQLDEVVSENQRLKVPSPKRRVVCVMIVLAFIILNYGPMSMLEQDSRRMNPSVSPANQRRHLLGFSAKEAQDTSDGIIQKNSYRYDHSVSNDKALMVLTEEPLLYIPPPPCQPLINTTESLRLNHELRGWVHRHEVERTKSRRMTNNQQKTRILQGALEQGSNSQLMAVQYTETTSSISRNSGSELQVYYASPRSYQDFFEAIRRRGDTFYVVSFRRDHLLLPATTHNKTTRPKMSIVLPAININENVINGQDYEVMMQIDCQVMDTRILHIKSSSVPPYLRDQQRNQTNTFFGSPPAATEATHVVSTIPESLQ

T2: HNF-4α (Homo sapiens, UniProt P41235)
T2 construct: expressed in transfected cells; host or cells: HEK293T
T2 sequence (P41235 10-474): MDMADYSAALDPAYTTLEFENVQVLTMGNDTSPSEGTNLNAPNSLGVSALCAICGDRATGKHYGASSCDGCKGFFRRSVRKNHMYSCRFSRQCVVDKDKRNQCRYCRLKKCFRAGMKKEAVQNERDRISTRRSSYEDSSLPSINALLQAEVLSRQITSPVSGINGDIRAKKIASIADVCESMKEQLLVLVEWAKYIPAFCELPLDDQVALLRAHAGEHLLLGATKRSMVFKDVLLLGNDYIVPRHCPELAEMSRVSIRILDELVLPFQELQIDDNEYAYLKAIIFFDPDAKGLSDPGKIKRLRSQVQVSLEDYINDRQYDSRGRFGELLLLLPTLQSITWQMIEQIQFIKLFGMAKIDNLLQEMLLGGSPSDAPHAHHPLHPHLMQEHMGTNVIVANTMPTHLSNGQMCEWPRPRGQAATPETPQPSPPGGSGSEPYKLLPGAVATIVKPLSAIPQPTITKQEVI

T3: CREBL1 (Homo sapiens, UniProt Q99941)
T3 construct: expressed in transfected cells; host or cells: HEK293T
T3 sequence (Q99941 1-703): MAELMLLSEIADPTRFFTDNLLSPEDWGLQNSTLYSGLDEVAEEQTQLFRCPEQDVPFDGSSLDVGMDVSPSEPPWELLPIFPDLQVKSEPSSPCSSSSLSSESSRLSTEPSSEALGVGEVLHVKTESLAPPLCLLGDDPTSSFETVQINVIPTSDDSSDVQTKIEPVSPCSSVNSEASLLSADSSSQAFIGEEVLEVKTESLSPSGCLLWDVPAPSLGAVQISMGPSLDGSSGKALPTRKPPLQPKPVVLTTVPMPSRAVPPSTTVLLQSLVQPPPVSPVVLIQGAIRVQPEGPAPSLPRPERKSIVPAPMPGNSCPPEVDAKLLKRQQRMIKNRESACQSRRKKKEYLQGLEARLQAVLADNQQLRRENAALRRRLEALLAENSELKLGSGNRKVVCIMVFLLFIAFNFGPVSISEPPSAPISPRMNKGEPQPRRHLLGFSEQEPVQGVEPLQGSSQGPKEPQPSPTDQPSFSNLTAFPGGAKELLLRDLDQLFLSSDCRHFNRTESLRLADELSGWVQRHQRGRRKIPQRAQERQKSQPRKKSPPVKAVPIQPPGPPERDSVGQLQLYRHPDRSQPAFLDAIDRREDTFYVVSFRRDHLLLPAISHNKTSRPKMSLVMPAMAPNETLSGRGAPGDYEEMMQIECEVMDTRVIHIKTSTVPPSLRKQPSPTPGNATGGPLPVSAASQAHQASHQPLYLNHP


How the values were obtained:
casein = assay: Casein zymography and protease assay with casein sodium; format: biochemical; conditions: for protease activity using casein sodium as a substrate: HtrA2 types expressed in a cultured cell
Protocol: Determination of the activity of mature HtrA2 and mature HtrA2 (S306A) was carried out with casein zymography and with a protease assay with casein sodium. Casein zymography was carried out according to the protocol (Invitrogen). More concretely, mature HtrA2 and mature HtrA2 (S306A) were mixed under non-reductive condition with equivalent volume of 2×SDS sample buffer, left to stand at room temperature for 10 min, followed by separation with 4-16% zymogram (Blue casein) gel (Zymogram Gel, Invitrogen). After completion of electrophoresis, they were renatured with 2.5% Triton X-100, and then subjected to a degradation reaction of casein in the developing buffer at 37= C. for overnight.
Meanwhile, a protease assay using casein sodium as an substrate was carried out in such that mature HtrA2 or mature HtrA2 (S306A) was mixed with casein sodium in a reaction buffer (150 mM NaCl, 50 mM Tris-HCl (pH 7.5)) so as to the concentration of the former might become 200 μg/ml and the concentration of the latter might become 400 μg/ml, and incubated at 37° C. for reactions. A portion of the reaction solution was sampled at three hours and overnight after initiation of the reaction, mixed with equivalent volume of 2×SDS sample buffer followed by boiling, and then subjected to SDS-PAGE. After that, the degradation of casein sodium was detected by Coomassie Brilliant Blue (CBB) staining.
The enzyme activity of the various types of HtrA2 each of which was expressed in a cultured cell was determined by the protease assay using casein sodium as a substrate (see Example 2).

ATF6 = target: T1, ATF6; assay: Intracellular protease assay, co-expression with ATF6 in HEK293T cells; format: cell-based; conditions: 48 hours
Protocol: (§1) HEK293T cells were cultured to 1.5×10^5 cells/10 cm Dish. Next day, the expression plasmid of CREBL1 or ATF6 was transfected into HEK293T cells together with the expression plasmid of various types of HtrA2 using FuGene 6 (Roche). Each of the expression plasmid of various HtrA2 at 1 μg/Dish was added in combination with CREBL1 expression plasmid or ATF6 expression plasmid at 1 μg/Dish. Forty eight hours later, the cells in which the various types of HtrA2 were co-expressed with CREBL1 or ATF6 were added with 200 μl of lysis buffer B and an equivalent volume of 2×SDS sample buffer (containing 0.1% β-mercaptoethanol), and then subjected to sonication followed by boiling to use as a test sample.
(§2) Expression of CREBL1 and ATF6 and the degradation of these proteins were detected by western blotting using 10 μl of the test sample thus obtained. Anti-c-Myc (9E10) antibody was used as a primary antibody for detection, and horseradish peroxidase (HRP) conjugated anti-mouse IgG antibody (Cell Signaling) was used as a secondary antibody. Detection was carried out using ECL Western Blotting Detection System.

HNF-4α = target: T2, HNF-4α; assay: Intracellular protease assay, co-expression with HNF-4α in HEK293T cells; format: cell-based; conditions: 48 hours
Protocol: as §1, with “cells/6” for “cells/10”, “HNF-4α” for “CREBL1 or ATF6”, “HNF-4α” for “CREBL1 expression plasmid or ATF6”
Expression of HNF-4α and the degradation of HNF-4α were detected by western blotting using 10 μl of the test sample thus obtained. Anti-FLAG antibody (Sigma) was used as a primary antibody for detection, and horseradish peroxidase (HRP) labeled anti-mouse IgG antibody (Cell Signaling) was used as a secondary antibody. Detection was carried out using ECL Western Blotting Detection System.

CREBL1 = target: T3, CREBL1; assay: Intracellular protease assay, co-expression with CREBL1 in HEK293T cells; format: cell-based; conditions: 48 hours
Protocol: as §1, §2

Row | Molecule | degradation of casein (casein; casein zymography and casein sodium protease assay, 37° C., E. coli-expressed His-tagged protein) | degradation of ATF6 in cells (band by western blotting) (ATF6) | degradation of HNF-4α in cells (band by western blotting) (HNF-4α) | protease activity using casein sodium as a substrate (casein) | degradation of CREBL1 in cells (band by western blotting) (CREBL1)
1 | mature HtrA2 (S306A): SEQ ID NO: 6; HtrA2 mutant with substitution of the 174th serine residue of mature HtrA2 with alanine (protein, Polypeptide consisting of the same amino acid sequence of SEQ ID NO4 wherein the 174th amino acid residue is substituted by Ala; mature HtrA2(S306A), HtrA2 mutant with substitution of the 174th serine residue of mature HtrA2 with alanine) MAVPSPPPASPRSQYNFIADVVEKTAPAVVYIEILDRHPFLGREVPISNGSGFVVAADGLIVTNAHVVADRRRVRVRLLSGDTYEAVVTAVDPVADIATLRIQTKEPLPTLPLGRSADVRQGEFVVAMGSPFALQNTITSGIVSSAQRPARDLGLPQTNVEYIQTDAAIDFGNAGGPLVNLDGEVIGVNTMKVTAGISFAIPSDRLREFLHRGEKKNSSSGISGSQRRYIGVMMLTLSPSILAELQLREPSFPDVQHGVLIHKVILGSPAHRAGLRPGDVILAIGEQMVQNAEDVYEAVRTQSQLAVQIRRGRETLTLYVTPEVTE | degradation of casein was not observed |  |  |  | 
2 | mature HtrA2 (GVPS): SEQ ID NO: 10; substitution of alanine among the N-terminal four residues of mature HtrA2 with glycine (protein, Polypeptide consisting of the same amino acid sequence of SEQ ID NO4 wherein the 2nd amino acid residue is substituted by Gly; mature HtrA2(GVPS), substitution of alanine among the N-terminal four residues of mature HtrA2 with glycine) MGVPSPPPASPRSQYNFIADVVEKTAPAVVYIEILDRHPFLGREVPISNGSGFVVAADGLIVTNAHVVADRRRVRVRLLSGDTYEAVVTAVDPVADIATLRIQTKEPLPTLPLGRSADVRQGEFVVAMGSPFALQNTITSGIVSSAQRPARDLGLPQTNVEYIQTDAAIDFGNSGGPLVNLDGEVIGVNTMKVTAGISFAIPSDRLREFLHRGEKKNSSSGISGSQRRYIGVMMLTLSPSILAELQLREPSFPDVQHGVLIHKVILGSPAHRAGLRPGDVILAIGEQMVQNAEDVYEAVRTQSQLAVQIRRGRETLTLYVTPEVTE |  | the band of ATF6 was reduced significantly | the band of HNF-4α was reduced significantly | active type having protease activity | the band of CREBL1 was reduced significantly
3 | mature HtrA2 (ΔAVPS): SEQ ID NO: 8; lacks the N-terminal four amino acid residues (AVPS) of mature HtrA2 (protein, Polypeptide consisting of the same amino acid sequence of SEQ ID NO4 wherein the amino acid residues from the 2nd to the 5th are deleted; mature HtrA2(delta AVPS)) MPPPASPRSQYNFIADVVEKTAPAVVYIEILDRHPFLGREVPISNGSGFVVAADGLIVTNAHVVADRRRVRVRLLSGDTYEAVVTAVDPVADIATLRIQTKEPLPTLPLGRSADVRQGEFVVAMGSPFALQNTITSGIVSSAQRPARDLGLPQTNVEYIQTDAAIDFGNSGGPLVNLDGEVIGVNTMKVTAGISFAIPSDRLREFLHRGEKKNSSSGISGSQRRYIGVMMLTLSPSILAELQLREPSFPDVQHGVLIHKVILGSPAHRAGLRPGDVILAIGEQMVQNAEDVYEAVRTQSQLAVQIRRGRETLTLYVTPEVTE |  | the band of ATF6 was reduced significantly | the band of HNF-4α was reduced significantly | active type having protease activity | the band of CREBL1 was reduced significantly
